According to the supplement of paper PMC10126150:
± gives the standard deviation of the averaged measurements.

test system: ATP; assay: switch fluorescence ratio, 500 uM ATP over buffer (Cy3 cluster intensity, sum of 5 cycles each) (fold (ratio)); higher = stronger signal-on switching upon ATP binding; sequences stand for … in TCGTCGGCAGCGTCAGATGTGTATAAGAGACAGTTTTTTTTTTTTTTTTTTTTTTTTT…TC; details: aptamer strand: ATP DNA aptamer (quencher-CACCTGGGGGAGTATTGCGGAGGAAGG + anchor), 100 nM annealed; ATP concentration: 500 uM
How it was run: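 After annealing to 100 nM quencher-labelled ATP aptamer, Cy3-labelled switching-strand clusters on a modified Illumina MiSeq flow-cell were imaged in selection buffer. A second image followed after 15 min with 500 uM ATP at 22 °C, and five such buffer/ATP cycles were done, each separated by NaOH stripping and re-annealing. The fluorescence ratio, averaged per switch-domain sequence, is summed target-cycle over summed buffer-cycle Cy3 intensity per cluster, with clusters outside 100-1000 RFU excluded.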
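Also: ATP exposure 15 min at 22 °C before imaging.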

Sequence | switch fluorescence ratio
AGGGAGAGAG | 0.997 ± 0.022
AGGGAGAGCC | 0.9957 ± 0.0041
AGGGAGATAA | 1.14 ± 0.17
AGGGAGCTGG | 0.998 ± 0.013
AGGGAGGGGG | 1.01 ± 0.094
AGGGAGGGTG | 1.02 ± 0.066
AGGGAGGTTG | 1.01 ± 0.013
AGGGAGTAGG | 1.12 ± 0.029
AGGGATAAAT | 1.01 ± 0.055
AGGGATAGAT | 0.99 ± 0.026
AGGGATGGTT | 0.982 ± 0.013
AGGGATGTCT | 1.02 ± 0.043
AGGGATGTTA | 0.991 ± 0.014
AGGGATGTTG | 0.995 ± 0.013
AGGGATTACG | 1.01 ± 0.038
AGGGATTAGG | 0.99 ± 0.034
AGGGATTAGT | 0.991 ± 0.022
AGGGATTGCG | 0.9971 ± 0.0093
AGGGATTGGT | 0.952 ± 0.019
AGGGCAATAT | 3.84 ± 0.48
AGGGCACGGT | 0.983 ± 0.036
AGGGCAGTTG | 0.97 ± 0.024
AGGGCATTCA | 1.02 ± 0.046
AGGGCCTCTT | 0.986 ± 0.028
AGGGCGCTAT | 1.05 ± 0.042
AGGGCGGCTT | 1 ± 0.032

Sequence | switch fluorescence ratio
AGGGCGTACA | 0.992 ± 0.01
AGGGCTAAGG | 0.9995 ± 0.0034
AGGGCTAATA | 1.009 ± 0.0081
AGGGCTGTGT | 0.999 ± 0.046
AGGGGACGGC | 1.04 ± 0.0085
AGGGGAGAGA | 1.04 ± 0.014
AGGGGAGTAG | 0.99 ± 0.022
AGGGGATGCT | 1.01 ± 0.016
AGGGGATTTG | 0.999 ± 0.03
AGGGGCAACT | 1 ± 0.048
AGGGGCGCCG | 1 ± 0.06
AGGGGCGGTC | 1.03 ± 0.014
AGGGGCGTGG | 1.01 ± 0.046
AGGGGCTATA | 0.9703 ± 0.0061
AGGGGCTCCG | 1.02 ± 0.036
AGGGGGCATG | 0.986 ± 0.023
AGGGGGCGAG | 0.988 ± 0.018
AGGGGGCGCA | 0.991 ± 0.051
AGGGGGCGCT | 1.01 ± 0.043
AGGGGGCGTC | 1.022 ± 0.0093
AGGGGGCTTT | 0.985 ± 0.021
AGGGGGGAC | 0.9875 ± 0.0048
AGGGGGGAGA | 0.994 ± 0.026
AGGGGGGCCT | 0.989 ± 0.087
AGGGGGGCGC | 0.993 ± 0.033
AGGGGGGCTA | 0.991 ± 0.038

Sequence | switch fluorescence ratio
AGGGGGGGAG | 1.01 ± 0.053
AGGGGGGGGC | 1.04 ± 0.13
AGGGGGTGCT | 0.997 ± 0.028
AGGGGGTTCT | 1.017 ± 0.0056
AGGGGGTTT | 1.02 ± 0.024
AGGGGTAACT | 0.996 ± 0.031
AGGGGTACAT | 1.01 ± 0.033
AGGGGTACGC | 0.95 ± 0.091
AGGGGTATTC | 1.01 ± 0.049
AGGGGTGAGT | 1.02 ± 0.04
AGGGGTGCCT | 0.993 ± 0.013
AGGGGTGTGT | 1.01 ± 0.019
AGGGGTGTT | 1.02 ± 0.016
AGGGTAATTG | 0.998 ± 0.036
AGGGTAGTAG | 1.015 ± 0.0063
AGGGTATATC | 1.05 ± 0.03
AGGGTCATTC | 0.975 ± 0.017
AGGGTCCGAG | 1.001 ± 0.0045
AGGGTCCTAC | 1.02 ± 0.047
AGGGTCGCTG | 1.016 ± 0.0011
AGGGTCGGAC | 1.01 ± 0.012
AGGGTCTGAG | 1.01 ± 0.026
AGGGTCTTTA | 0.999 ± 0.012
AGGGTGAGCG | 0.997 ± 0.022
AGGGTGAGGC | 0.992 ± 0.06
